Where no end group is shown, it is not given here. [ ]: non-standard residue; d: D form. Bip = N[C@@H](Cc1ccc(-c2ccccc2)cc1)C(=O)O
Molecular target: Full-length human glucagon-like peptide 1 receptor (human, UniProt P43220 24-463)
Assay: cell-based or functional assay

Row | Binder | cAMP production (EC50), cAMP cell-based assay in CHO-GLP-1R-19 cells
1 | HAEGTFTSD-NH2 | > 1 millimolar
2 | HAEGTFTSD[Bip][Bip]-NH2 (N-terminus assumed; SMILES C[C@H](NC(=O)[C@@H](N)Cc1c[nH]cn1)C(=O)N[C@@H](CCC(=O)O)C(=O)NCC(=O)N[C@H](C(=O)N[C@@H](Cc1ccccc1)C(=O)N[C@H](C(=O)N[C@@H](CO)C(=O)N[C@@H](CC(=O)O)C(=O)N[C@@H](Cc1ccc(-c2ccccc2)cc1)C(=O)N[C@@H](Cc1ccc(-c2ccccc2)cc1)C(N)=O)[C@@H](C)O)[C@@H](C)O) [GLP-1 11-mer peptide analog His-Ala-Glu-Gly-Thr-Phe-Thr-Ser-Asp-Bip-Bip-NH2] | 1100 nM
